According to a protein production outcome set (Wang et al. 2014):

Assay: label from the status in PepcDB records

Row | Sequence | protein production
1 | MKITDISGKIETLVDSLRDMSPTRVRSSFSDEHVSENDDERSSWIALHPSALDMFEQIMRDAEGKQIIMFLDYDGTLSLITEDHDRAYITDEMREVVKEVATYFKTAIISGRSTDKVQSFVKLTGIHYAGSHGMDIKGPTNTDQSNQEEVMFQPASDYLPMIDEVVNVLKEKTKSIPGATVEHNKFCLTVHFRRVDETGWAALAEQVRLVLIDYPKLRLTQGRKVLELRPSIKWDKGKALEFLLNSLGIAESKDVLPVYIGDDRTDEDAFKVLCERGQGFGIIVSKTIKETYASYSLQDPSQVKEFLERLVKWKKQTLGE | failed
2 | MKITLIIPTYNAGSIWPNVLDAIKQQTIYPDKLIVIDSGSKDETVLLASDLKNISIFNIDSKDFNHGGTRNLAVTKTLDADVIIFLTQDAILADSDAIKNLVYYFSDPLIAAVCGRQLPHKDANPLAVHARNFNYSSKSIVKSKADIEKFGIKTVFMSNSFAAYRRSVFEELSGFPEHTILAEDMFMAAKMIQAGYKVAYCAEAVVRHSHNYTPREEFQRYFDTGVFHACSPWIQRDLGGAGGEGFRFVKSEIQFLLKNAPFWIPRALLTTFAKFLGYKLGKHWQSLPLSTCRYFSMYKSYWNNIQYSSSKEIKLEHHHHHH | failed
3 | MKIVVNNQSTLAAELMIVAQENLQKLVEQTKCPNSKALLDRRIFKAKSGEVLPLLHGDKIVILLGLGLRQDFIASEYDKIIAKAAEQLKKLAIKEISVDIDYAFENDNVKQFTLDTVRALISETYVFDQLKTEKENYSLEQIELVYSGDQDIEDSAKIGSAIACGQNYAKDLQNLPANICTTDYMLNEARELTSKYATFSLDYLDQDAMAELGMGCALAVGRGSYMSNYTVCMEYKGGNEGDAPIVLVGKGLVFDNGGICIKQAAGMDSMKMDMGGVAAVMGTMKAIAMLNLPVNVVGVMGLAENAVDARSYRPGDVLKSMKGITVEVSNTDAEGRLVLCDTLTYIGKYKPKAVIDLATLTGAMIISLGDAYSGMFANSDKLANSLEQAANASNDLIWRLPLHKPYLKKIESKVADMDNCGRDRSAGSIVAALFLSKFTEDYEWAHLDIAGSAMGDFASCKASGRPVPLLVHYLISQAK | not failed
4 | MKIWTSEHVFDHPWETVTTAAMQKYPNPMNPSVVGVDVLDRHIDPSGKLHSHRLLSTEWGLPSIVKSLIGAARTKTYVQEHSVVDPVEKTMELKSTNISFTNMVSVDERLIYKPHPQDPEKTVLTQEAIITVKGVSLSSYLEGLMASTISSNASKGREAMEWVIHKLNAEIEELTASARGTIRTPMAAAAFAEK | failed
5 | MKIYHKFLLYQNKLLKPYVRILLGLVEALTYLASLLLIVGVVYEHGFPLSPVEVQQIQILYKAVWIIFLIDVTLHISLEYRNTKKQYRRLAWILSVLLYLTLVPVIFHRPEEEGAILQVWEFLHGKFYHLILLLVFSLLNLSNGLVRLLGRRTNPSLILAVSFMAIILIGTGLLMLPRCTVNGITWVDSLFTATSAVCVTGLVPVDVSTTFTTSGLVVIILLIQIGGLGVMTLTSFFAMFFMGNTSIYNQLVVRDMVSSNSLGSLLSTLLYILGFTLVIEGIGMVSIWFSIHDTLGMNLEEELAFAAFHSISAFCNAGFSTLSGNLGNSMVMTNHNWLFISVSLLIILGGIGFPILVNFKDIVLYHLRHVWTFVRTRKLERHKMPHLYNLNTKIVLIMTFLLLLIGTLAILAFEWNASFAGMSVADKWTQAFFNATCPRTAGFSSVDLASLSVQTLLVYLFLMWVGGGSQSTAGGVKVNAFAVVVLNLVAVLRGSERVEVFGRELSHDSIRRSNATVVMSLGVLFLFIFILSILEPKASLLALTFECVSALSTVGSSLNLTPQLCDASKLLVSLLMFIGRVGLITLMLGIVKQKKNTKYRYPSDNIIIN | failed
6 | MKIYLVGGAVRDALLGLPVKDKDWVVVGATPQEMLDAGYQQVGRDFPVFLHPQTHEEYALARTERKSGSGYTGFTCYAAPDVTLEADLQRRDLTINALARDDAGQIIDPYHGRRDLEARLLRHVSPAFGEDPLRVLRVARFAARYAHLSFRIADETLALMREMTAAGELEHLTPERVWKETENALTTRNPQVYFQVLRDCGALRVLFPEIDALFGVPAPAKWHPEIDTGVHTLMTLSMAAMLSPQLDVRFATLCHDLGKGLTPKNLWPRHHGHGPAGVKLVEQLCQRLRVPNDLRDLAKLVAEYHDLIHTFPILQPKTIVKLFDAIDAWRKPQRVEQIALTSEADVRGRTGFEASDYPQGRWLREAWQVAQAVPTKEVVEAGFKGIEIREELTKRRIAAVANWKEKRCPNPAS | failed
7 | MKKALISTLFGVSLAFAKPYTIDKANSSVWFEVKHFTFNETRGAFDNFDGKIDLEPNTKMLSVFEGNIDVKSVNTRDRKRDNHLKTADFFDVVKYPKGSFKMTKYEDGKIYGDLTLRGVTKPVVLEAKIQAPLQNPMNKKEFMVLQAEGKINRKDFGIGKTFSDAVVGDEVKIELKLEAYAQ | failed
8 | MKKCFELTPCLLAFLCITSCVEDVDNERSKGMFSASQSGFSTIEVYDLGPLNKIDLSIAKAGLEDTGGTVTFSVEQSLLDSLNNADGTSYQLLPPECYTIENATYSVSPGGDRRVTGGSLVYDPHKIYNLCGFDELKYVLPLRVSSTGTPMNSDRTATLYGFIVKEAIVRLASTGGDFVVEGGTTTSPMNLDTEISFENEWDLTTSFATKGADYVDNYNSANSTYYIPLPSDFYTLPDVTIAKGKTTGGSAISLLGETLPPGNYLLPVSLGGLSGQGDASINIDKETVANYFVIKQGGPINRDHWTVTANTEEKTGEVSAAYPHNGQTISLIDGEINTFWHSKWQGGEVAPPYEIILDMGKENSVSQLGLIARQNALTSMNLEIYAGDDGETWNLIGKYFFDGSIKTEQMVPVKACDARWIRIYIPTLGSGSSVGHLAEIYVYGTDK | failed
9 | MKKEIASHLLEIGAVFLQPNDPFTWSSGMKSPIYCDNRLTLSYPKVRQTIAAGLEELIKEHFPTVEVIAGTATAGIAHAAWVSDRMDLPMCYVRSKAKGHGKGNQIEGKAEKGQKVVVVEDLISTGGSAITCVEALREAGCEVLGIVSIFTYELEAGKEKLEAANVASYSLSDYSALTEVAAEKGIIGQAETKKLQEWRKNPADEAWITA | not failed
10 | MKKFFKLKENKTTVRTEVLAGITTFFAMSYILFVNPSILSQTGMPSQGVFLATIIGSIAGTLMMGLYANIPYAMAPGMGLNAFFTYTVVFSLGYTWQEALAMVFICGIISIVITLTRVRRMIIDEIPDSLKKAISAGIGIFLTYIGLKNAGLLNFAIDPGTYSVSGKGAAKGLASITANSSATPSLVNFNNPAVLVAVIGIIITAFFIIKNIKGGVILSIIVTTVIALLAGVVDLSKIDFSANNPVAAVKDLGTIFGAALGNKGLGALFSDAGRIPEVLMTILAFALTDIFDNVGTLIGTGAKAGIFDVTSESTSSGLQNKMDKALFSDMVGTTVGAVAGTSNVTTFVESAAGIGAGGRTGLTAVVVALLFAVSSFFSPLLAIVPTQATAAVLLIVGIMMLSSLKDIEWSDMSQAIPAFFATVFMGLAYSITQGIATGFLFYTFSKLIKKEAKDIHPIIWVLDVLFILNFISLAVL | failed
11 | MKKFILIMVLGSALFTGGAIYDGIDNQDMTQPTIHFWEKNPMKLNLYAKGQCTYYVFDRIRQDGNMISNRWGDAKYWANEASKEGYKVNDNPSVGSILQYPKGQHGHVAYVDKVNHDGSLTVFDMNYRKPYEVTKRTVYEYQVDEFNYIHPKKNQSENA | failed
12 | MKKFNIKSLTLLIVLLPLIVNANNIDSHLLEQNDIAKYVAQSDTVGSFFERFSALLNYPIVVSKQAAKKRISGEFDLSNPEEMLEKLTLLVGLIWYKDGNALYIYDSGELISKVILLENISLNYLIQYLKDANLYDHRYPIRGNISDKTFYISGPPALVELVANTATLLDKQVSSIGTDKVNFGVIKLKNTFVSDRTYNMRGEDIVIPGVATVVERLLNNGKALSNRQAQNDPMPPFNITQKVSEDSNDFSFSSVTNSSILEDVSLIAYPETNSILVKGNDQQIQIIRDIITQLDIAKRHIELSLWIIDIDKSELNNLGVNWQGTASFGDSFGASFNMSSSASISTLDGNKFIASVMALNQKKKANVVSRPVILTQENIPAIFDNNRTFYVSLVGERNSSLEHVTYGTLINVIPRFSSRGQIEMSLTIEDGTGNSQSNYNYNNENTSVLPEVGRTKISTIARVPQGKSLLIGGYTHETNSNEIISIPFLSSIPVIGNVFKYKTSNISNIVRVFLIQPREIKESSYYNTAEYKSLISEREIQKTTQIIPSETTLLEDEKSLVSYLNY | failed
